Measured values: patent publication US20130136718A1
Like-named read-outs stand apart in the source and are kept apart here.

Tests used:
[1] = biological target: CD20 (human) (UniProt P11836); assay: cell-based or functional assay
[2] = biological target: CD20 (human) (UniProt P11836); assay: cell-based or functional assay; remark: listed apart in the source

Sequence of CD20 (human) (P11836 whole entry): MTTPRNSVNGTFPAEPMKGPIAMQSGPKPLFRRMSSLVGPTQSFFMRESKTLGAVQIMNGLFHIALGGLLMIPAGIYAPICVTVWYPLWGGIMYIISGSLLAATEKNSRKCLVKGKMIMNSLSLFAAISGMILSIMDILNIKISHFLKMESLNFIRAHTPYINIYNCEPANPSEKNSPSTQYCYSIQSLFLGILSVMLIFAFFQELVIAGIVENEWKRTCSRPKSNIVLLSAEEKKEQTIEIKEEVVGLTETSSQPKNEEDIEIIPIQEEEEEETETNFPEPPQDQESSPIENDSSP

Row | in vitro proliferation of Jeko-1 cells, EC50 [1] [pM] | in vitro proliferation of Jeko-1 cells, EC50 [2] [pM] | in vitro proliferation of Daudi cells, potency against non-targeting MAb-IFNα constructs [1] [fold] | in vitro proliferation of Jeko-1 cells, low-concentration response, EC50 [1] [pM] | in vitro proliferation of Jeko-1 cells, potency against 734-2b [1] [fold] | in vitro proliferation of Jeko-1 cells, high-concentration response, EC50 [2] [pM] | Substance
1 | 1000 | 1500 | – | – | – | – | veltuzumab (antibody)
2 | – | – | 30 | 0.97 | 25 | 850 | 20-2b (from UniProt P01563 24-188)
